Reference: the supplement of paper PMC10567573
± gives the standard deviation.

Assay: protein stability index of a GFP-peptide fusion (GPS, HEK-293T) (PSI 1-6); higher = more stable
[1] = treatment: DMSO, c terminus: a fixed tail appended
[2] = treatment: MLN4924 1 uM, 8 h, c terminus: a fixed tail appended
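Note: 24-mer peptide tiles fused after GFP, lentivirally expressed, FACS-sorted into six equal bins by GFP/DsRed ratio, decoded by Illumina sequencing, PSI is the read-weighted mean bin number.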

Sequence | protein stability index [1] | protein stability index [2] | protein stability index (treatment: DMSO, c terminus: native) | protein stability index (treatment: MLN4924 1 uM, 8 h, c terminus: native)
LRLLQHTPSARRNYRIAGARLMRS [C6orf223] | 2.99 ± 0.22 | 3.08 ± 0.32 | – | –
WKVLTWLRYTLWIPLYPLGCLAEA [HACD3] | 2.78 ± 0.74 | 2.55 ± 0.54 | – | –
LMDYIGINLATMNSCINPIALYFV [EDNRA] | – | 3.08 ± 0.24 | – | –
LGWGPTALRDVPFSALYWFNYELV [SLC25A39] | 2.9 ± 0.54 | 2.61 ± 0.41 | – | –
LLDFMCRIIPNFYPPLEGHVRQGV [INTS3] | 3.31 ± 0.42 | 2.84 ± 0.41 | – | –
TIFSASNYYEVGSNRGAYVKLGPA [PPEF2] | 2.39 ± 0.5 | 2.66 ± 0.3 | – | –
GKMVEEVDGRATQKLIVNLKPEKS [PTPRD] | 4.69 ± 0.13 | 4.66 ± 0.29 | – | –
QLHHVVYCFMIAYGTQRTLILESQ [FUT8] | 3.12 ± 0.55 | 3.17 ± 0.36 | – | –
FARVKKGADGVMRTMAPEKLLKSM [SNAP91] | 2.7 ± 0.18 | 3.05 ± 0.42 | – | –
NEKIYELRVMETKPDKAVSIIECD [UFD1] | 4.33 ± 0.11 | 4.28 ± 0.16 | – | –
KESGQEGVDSMAEEGTSDSNTGSE [SMARCE1] | 5.01 ± 0.61 | – | – | –
VQRHNSFSPNSPQFNVSGPGLLEE [NECAB1] | 4.03 ± 0.21 | 4.33 ± 0.32 | – | –
VARVLRGCLENMPEADCIPKEQLS [PLK2] | 3.42 ± 0.26 | 3.62 ± 0.13 | – | –
QSGFEMLKDVKSTLEKCEKVKTME [TRIM39] | 5.11 ± 0.2 | 4.86 ± 0.2 | – | –
RAVDWWALGILIFEMLSGFPPFFD [PRKX] | 2.99 ± 0.42 | 2.78 ± 0.57 | – | –
LDFKDLLESEDWEEDNWDPELMEH [TEX19] | 4.86 ± 0.091 | 4.94 ± 0.26 | – | –
GQAEEELIKAKSQARLEEQQRLAH [LRRC45] | 5.13 ± 0.26 | 4.91 ± 0.38 | – | –
FVVGNCLQIASDSHQYDRIYCGAG [PCMTD1] | 2.45 ± 0.38 | 2.62 ± 1 | – | –
TNNGAGFGLSILWVLLFTPCSFVC [SCAMP3] | 3.04 ± 0.37 | 3.27 ± 0.36 | – | –
RFTGTMDAFVKIVRHEGTRTLWSG [SLC25A39] | 2.53 ± 0.52 | 2.47 ± 0.25 | – | –
IMLLDKNVPNPRIKLIDFGIAHKI [DAPK3] | 2.89 ± 0.73 | 2.52 ± 0.46 | – | –
FGASAAGGLSPVTNLTVTMDQLQG [CDC25A] | 3.65 ± 0.27 | 3.7 ± 0.46 | – | –
YFITLGTDLAQQQGGGNGQQQQAM [KCNA4] | 3.04 ± 0.18 | 2.95 ± 0.67 | – | –

Sequence | protein stability index [1] | protein stability index [2] | protein stability index (treatment: DMSO, c terminus: native) | protein stability index (treatment: MLN4924 1 uM, 8 h, c terminus: native)
YIKTPLFNPEVAKYLKVPQDPLKF [IQUB] | 2.42 ± 0.66 | 2.57 ± 0.36 | – | –
SPINSPARGTPSPKRMPSGRGGRD [FSD1] | 5.22 ± 0.15 | 5.04 ± 0.35 | – | –
AEHQFSFMEKRNQWLVSQLSAASP [TRAF3IP2] | 3.02 ± 0.39 | 3.23 ± 0.37 | – | –
SSEVGPFVSKIRAVINDIANLPVP [AUH] | 2.64 ± 0.25 | 2.62 ± 0.42 | – | –
QGSPAVDKERFTTLVQDLANAFQQ [CHIT1] | 3.13 ± 0.25 | 3.48 ± 0.22 | – | –
MGQTALAGGSSSTPTPQALYPDLS [SPSB2] | 4.46 ± 0.37 | 4.66 ± 0.37 | – | –
MKDSMSAAEVGTGQYATTKGISQT [EPB41L3] | 4.75 ± 0.094 | 4.78 ± 0.44 | – | –
PIFQDSQDTEVFSWSDNERSSSRI [FAM104B] | 4.34 ± 0.55 | 4.41 ± 0.26 | – | –
QWEYPYLLSILPSLLGLLSFPRNN [JAGN1] | 2.85 ± 0.25 | 2.94 ± 0.35 | – | –
ADLENEDIFPELDDILYHVKGMQR [DLC1] | 3.7 ± 0.13 | 3.72 ± 0.34 | – | –
PTKDRLEGLLAFKEKRPPRYKGE [AUH] | – | – | 2.11 ± 0.31 | 4.4 ± 0.1
WAIPNRQINDGMGGDGDDMEIFME [BEX3] | 4.31 ± 0.3 | 4.22 ± 0.26 | – | –
ERWLKELRDHADSNIVIMLVGNKS [RAB11A] | 2.32 ± 0.29 | 2.26 ± 0.34 | – | –
DVCSFPNALVTKLLLDCGAEVNAV [FEM1B] | 2.48 ± 0.83 | 2.44 ± 0.48 | – | –
MPGFPDNIRPSSSGGYWVGMSTIR [APMAP] | 2.87 ± 0.38 | 2.9 ± 0.42 | – | –
PLMPGMPPVMPGMPPGLHHQRKYT [ZNF207] | 3.91 ± 0.39 | 4.11 ± 0.18 | – | –
EDSKRWSKMDQLAKELTAEKRLEG [CHGA] | 4.97 ± 0.33 | 5.11 ± 0.26 | – | –
QHAVQELTKAATSGVGIDGEVLSY [RHOBTB1] | 4.5 ± 0.25 | 4.57 ± 0.14 | – | –
YSGGGYYLDLPGSRQGSAEALRAL [PKD2L1] | 2.5 ± 0.48 | 2.92 ± 0.89 | – | –
QPLEASNPALEGLTQPLQGGTPHC [DNAAF3] | 5.11 ± 0.15 | 5.09 ± 0.35 | – | –
PEGSLSQTMAGSSPNTPQPVPEQS [FAM104A] | 5.47 ± 0.14 | 5.45 ± 0.12 | – | –
HDPLWRRHCKKYWLISEEEKTQKN [FBXO3] | 3.56 ± 0.45 | 3.99 ± 0.34 | – | –
